Assay results as given in patent US11229713B2, “Methods and compositions for 18F-radiolabeling of biologics” (BRISTOL-MYERS SQUIBB COMPANY, priority 2014, dated 2022).

Experiments:
[1] = Stability of reconstituted [18F]-FPPEGA in 1×PBS buffer; format: physicochemical; conditions: 100% 1×PBS buffer, 37° C.
Method: An aqueous [^18F]-Fluoride solution (2.0 ml, 33.3 GBq/900 mCi) was purchased from P.E.T. Net® Pharmaceuticals in West Point Pa. and directly transferred to a Sep-Pak light QMA [The Sep-Pak light QMA cartridge was pre-conditioned sequentially with 5 ml of 0.5 M potassium bicarbonate, 5 ml of deionized water, and 5 ml of MeCN before use.] Upon completion of this transfer, the aqueous [^18F] fluoride was released from the QMA Sep-Pak by the sequential addition of potassium carbonate (15 mg/ml; 0.1 ml) followed by a mixture of potassium carbonate (30 mg/ml, 0.1 ml), 4,7,13,16,21,24-hexaoxa-1,10-diazabicyclo[8.8.8]hexacosane (15 mg, 0.04 mmol) and 1.2 ml of MeCN. The solvent was evaporated under a gentle stream of nitrogen at 90° C. and vacuum. Azeotropic drying was repeated twice with 1 ml portions of acetonitrile to generate the anhydrous K.2.2.2/K[^18F]F complex. […] The entire contents of the crude reaction mixture was then transferred, loaded and purified using reverse phase HPLC and the following conditions: HPLC Column: Luna C18 250×10 Solvent A: 0.1% TFA in DI water; solvent B: 0.1% TFA in acetonitrile at a flow rate of 4.6 ml/minute using isocratic method 32% B while the UV was monitored at 280 nm. […]

PD-L1 [2] = conditions: cynomolgus monkeys
Method: Cynomolgus male monkeys with a previously installed vascular access port (VAP) were anesthetized with 0.02 mg/kg atropine, 5 mg/kg Telazol and 0.01 mg/kg buprenorphine I.M. (all drawn into a single syringe). An i.v. catheter is then placed in the cephalic vessel for fluid administration during the imaging procedure to maintain hydration. […] Anesthesia was maintained with isoflurane and oxygen and I.V. fluids (LRS) were administered at a rate of 6 ml/kg/hr during the imaging procedure. As the axial field of view of the microPET® F220™ instrument is only 7.6 cm, images over 5 distinct bed positions were acquired to create a composite image of the animals from just above the heart through approximately the pelvis.
For each field of view, a 10 minute transmission image was first acquired using a ^57Co point source for the purpose of attenuation correction of the final PET images. […] Once images were acquired at each position (1 through 5), the imaging bed was moved back to bed position 1 and the process was repeated. Using this procedure, a total of 5 distinct images were acquired for each bed position over the duration of the imaging study.
Individual images were reconstructed using a filtered back projection (FBP) algorithm with attenuation correction using the collected transmission images and corrected for radioisotope decay.

PD-L1 [3] = target: PD-L1 (Homo sapiens, UniProt Q9NZQ7); experiment: In vitro differentiation of PD-L1-positive from PD-L1-negative cells (cell-associated radioactivity, gamma counter); format: binding; parameters: PD-L1-positive L2987 human lung carcinoma cells or PD-L1-negative HT-29 human colorectal adenocarcinoma cells; endogenous in cells; host or cells: L2987 human lung carcinoma cells (HT-29 as PD-L1-negative control); conditions: 1 hour on ice
Sequence of PD-L1 (Homo sapiens, UniProt Q9NZQ7) (Q9NZQ7 19-290): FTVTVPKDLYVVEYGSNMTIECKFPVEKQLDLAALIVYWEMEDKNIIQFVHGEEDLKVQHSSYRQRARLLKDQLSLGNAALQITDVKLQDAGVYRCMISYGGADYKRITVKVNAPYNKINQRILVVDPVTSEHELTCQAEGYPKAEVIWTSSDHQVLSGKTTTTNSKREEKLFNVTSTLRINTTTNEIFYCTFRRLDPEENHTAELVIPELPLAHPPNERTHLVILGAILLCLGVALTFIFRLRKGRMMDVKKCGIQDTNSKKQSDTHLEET
Method: Portions of this solution were supplemented with either cold (unlabeled) […] or cold (unlabeled) […] (control) to a final concentration of 450 nM. […] After the incubation period, cell samples were centrifuged at 200×g and the supernatant was discarded. Cell pellets were resuspended in 1 mL PBS+0.5% BSA and the wash procedure repeated for a total of 3 washes. Following the final wash, cells were again centrifuged at 200×g and the supernatant was discarded. The radioactivity of the remaining cell pellets was then measured by gamma counter.

For `[N-]=[N+]=NCCOCCOCCOCCOc1cccnc1[18F]` [[^18F]-3-(2-(2-(2-(2-azidoethoxy)ethoxy)ethoxy)ethoxy)-2-fluoropyridine], the “stable in this media” value [1] was “over 1 hour”.

B1: ^18F-radiolabeled E01-4PEG-DBCO: E01 anti-PD-L1 Adnectin (SEQ ID NO: 1) linked via maleimide-PEG4-DBCO to [18F]-FPPEGA by click reaction (conjugate)
chain: GVSDVPRDLEVVAATPTSLLISWRAQLSPSFYYRITYGETGGNSPVQEFTVPNDVMTATISGLKPGVDYTITVYAVTTHGVYFYSPISINYRTPC
modifications: maleimide-PEG4-DBCO, 18F-FPPEGA label; Synthetic FBS protein, E01 Adnectin containing the C-terminal amino acids PC
For B1, the “notable radiotracer accumulation (tissues)” value (PD-L1 [2]; PET) was “mainly in the kidneys, spleen, and bladder”, the “background levels / background accumulation in PET images” value (PD-L1 [2]; approx. 1.5 mCi (approx. 0.015 mg/kg) via VAP) was “very low” and the “cell associated radioactivity in PD-L1-positive L2987 cells relative to PD-L1-negative HT-29 cells” value (PD-L1 [3]; 300 nCi/200 μL tracer) was 44.6 ×.

B2: E01 Adnectin: FBS protein, anti-PD-L1 Adnectin, SEQ ID NO: 1, cold (unlabeled) (protein)
chain: B1 chain
modifications: Synthetic FBS protein, E01 Adnectin containing the C-terminal amino acids PC
With B2 the “reduction in cell-associated ^18F-radiolabeled E01-4PEG-DBCO on co-incubation with cold adnectin” value (PD-L1 [3]; 450 nM cold (unlabeled) adnectin) was 99.6%.
